One molecule from article PMC8158043 (mAbs, 2021) can be followed below.

This assay concerns the target SARS-CoV-2 RBD (residues 319–541) (SARS-CoV-2, UniProt P0DTC2). In words: BLI.

B1: CR3014 parental (human IgG1) (antibody, V domains shown)
VH: EVQLVESGGGLVQPGGSLRLSCAASGFTFSDHYMDWVRQAPGKGLEWVGRTRNKANSYTTEYAASVKGRFTISRDDSKNSLYLQMNSLKTEDTAVYYCARGISPFYFDYWGQGTLVTVSS
VL: not shown
Take B1: the binding result is “no binding”.
